Tests used:
SARS-CoV-2 = format: cell-based; conditions: concentrations ranging from 10 mg/ml to 1.25 mg/ml
Vero cells = assay: Cell toxicity against Vero cells by MTT assay; conditions: MTT assay
Procedure: Cell toxicity was monitored by establishing the effect of lysozyme HCl against Vero cells (epithelial cells of monkey kidneys). The cells were seeded in 96-well plates at the concentration of 1×10^4 cells/well. 24 hours after seeding, the cells were treated with serial dilutions of lysozyme HCl or chloroquine (as control), in a final volume of 200 in triplicate. After 72 hours' incubation at 37° C. with 5% CO2, cell viability was measured by MTT assay (D'Alessandro, M. et al., Differential effects on angiogenesis of two antimalarial compounds, dihydroartemisinin and artemisone: Implications for embryotoxicity, Toxicology. 241 (2007) 66-74. Doi: 10.1016/j.tox.2007.08.084).
The data were calculated as percentage cell viability using the formula:
[(absorbance of sample−blank of cell-free sample)/mean absorbance of control of media]×100.
The cytotoxicity of ovotransferrin and chloroquine (CQ) was measured by MTT assay, similarly to the method used for lysozyme HCl.

B1: Ovotransferrin: hen egg white protein, product code 501P2001090, produced by Bioseutica BV (protein, UniProt P02789 20-705, looked up)
Ovotransferrin: APPKSVIRWCTISSPEEKKCNNLRDLTQQERISLTCVQKATYLDCIKAIANNEADAISLDGGQAFEAGLAPYKLKPIAAEVYEHTEGSTTSYYAVAVVKKGTEFTVNDLQGKTSCHTGLGRSAGWNIPIGTLLHRGAIEWEGIESGSVEQAVAKFFSASCVPGATIEQKLCRQCKGDPKTKCARNAPYSGYSGAFHCLKDGKGDVAFVKHTTVNENAPDQKDEYELLCLDGSRQPVDNYKTCNWARVAAHAVVARDDNKVEDIWSFLSKAQSDFGVDTKSDFHLFGPPGKKDPVLKDLLFKDSAIMLKRVPSLMDSQLYLGFEYYSAIQSMRKDQLTPSPRENRIQWCAVGKDEKSKCDRWSVVSNGDVECTVVDETKDCIIKIMKGEADAVALDGGLVYTAGVCGLVPVMAERYDDESQCSKTDERPASYFAVAVARKDSNVNWNNLKGKKSCHTAVGRTAGWVIPMGLIHNRTGTCNFDEYFSEGCAPGSPPNSRLCQLCQGSGGIPPEKCVASSHEKYFGYTGALRCLVEKGDVAFIQHSTVEENTGGKNKADWAKNLQMDDFELLCTDGRRANVMDYRECNLAEVPTHAVVVRPEKANKIRDLLERQEKRFGVNGSEKSKFMMFESQNKDLLFKDLTKCLFKVREGTTYKEFLGDKFYTVISSLKTCNPSDILQMCSFLEGK
SARS-CoV-2
  antiviral activity of ovotransferrin alone: no antiviral activity was detected
Vero cells; 10 mg/ml
  viability compared with control cells: 100%
Vero cells; maximum concentration used (10 mg/ml)
  cytotoxicity: non-toxic
